Results taken from publication PMC4805542.

Tested on: ZF6-KRAB (synthetic construct)
Experiment: EMSA
Details: 2.5 uM protein, DNA titrated 130-200 nM; apparent Kd, Scatchard; 6.25 mM MgCl2; 25 mM Hepes pH 7.9, 50 mM KCl, 6.25 mM MgCl2, 1% Nonidet P-40, 5% glycerol; 15 min on ice; 5% PAGE in 0.5x TBE at 4 C

hRHO 65 bp duplex oligonucleotide
Kd: 108 nM
